# Laboratory results reported in the RNAGym collection of RNA variant scans (doi:10.7554/elife.80360).
# B1: CPEB3 Ribozyme (parent)
# chain: GGGGGCCACAGCAGAAGCGUUCACGUCGCGGCCCCUGUCAGAUUCUGGUGAAUCUGCGAAUUCUGCUGU
# Variants of: B1
# Assay: self-cleavage, relative activity (ratio to wild type); higher = more cleavage; co-transcriptional
row,Variant,self-cleavage
1,GGGGGCCGCAGCAGAAGCGUUCACGUCGCGGCCCCUGUCAGAUUCGGGUGAAUCUGCGAAUUCUGCUGU [A8G U46G],0.86
2,GGGGGCCGCAGCAGAAGCGUUCACGUCGCGGCCCCUGUCAGAUUCAGGUGAAUCUGCGAAUUCUGCUGU [A8G U46A],0.99
3,GGGGGCCGCAGCAGAAGCGUUCACGUCGCGGCCCCUGUCAGAUUCCGGUGAAUCUGCGAAUUCUGCUGU [A8G U46C],0.83
4,GGGGGCCGCAGCAGAAGCGUUCACGUCGCGGCCCCUGUCAGAUUCUGGUGAAUCUGCGAAUUCAGCUGU [A8G U64A],0.242
5,GGGGGCCGCAGCAGAAGCGUUCACGUCGCGGCCCCUGUCAGAUUCUGGUGAAUCUGCGAAUUCCGCUGU [A8G U64C],0.361
6,GGGGGCCGCAGCAGAAGCGUCCACGUCGCGGCCCCUGUCAGAUUCUGGUGAAUCUGCGAAUUCUGCUGU [A8G U21C],0.584
7,GGGGGCCGCAGCAGAAGCGUUCACGUCGCGGCCCCUGUCAGAUUCUGGUGAAUCUGAGAAUUCUGCUGU [A8G C57A],0.126
8,GGGGGCCGCAGCAGAAGCGUUCACGUCGCGGCCCCUGUCAGAUUCUGGUGAAUCUGGGAAUUCUGCUGU [A8G C57G],0.203
9,GGGGGCCGCAGCACAAGCGUUCACGUCGCGGCCCCUGUCAGAUUCUGGUGAAUCUGCGAAUUCUGCUGU [A8G G14C],0.125
10,GGGGGCCGCAGCAUAAGCGUUCACGUCGCGGCCCCUGUCAGAUUCUGGUGAAUCUGCGAAUUCUGCUGU [A8G G14U],0.0849
11,GGGGGCCGCAGCAAAAGCGUUCACGUCGCGGCCCCUGUCAGAUUCUGGUGAAUCUGCGAAUUCUGCUGU [A8G G14A],0.13
12,GGGGGCCGCAGCAGAAGCGGUCACGUCGCGGCCCCUGUCAGAUUCUGGUGAAUCUGCGAAUUCUGCUGU [A8G U20G],0.0536
13,GGGGGCCGCAGCAGAAGCGCUCACGUCGCGGCCCCUGUCAGAUUCUGGUGAAUCUGCGAAUUCUGCUGU [A8G U20C],0.09
14,GGGGGCCGCAGCAGAAGCGUUCACGUCGCGGCCCCUGUCACAUUCUGGUGAAUCUGCGAAUUCUGCUGU [A8G G41C],0.304
15,GGGGGCCGCAGCAGAAGCGUUCACGUCGCGGCCCCUGUCAUAUUCUGGUGAAUCUGCGAAUUCUGCUGU [A8G G41U],0.254
16,GGGGGCCGCAGCAGAAGCGUUCACGUCGCGGCCCCUGUCAAAUUCUGGUGAAUCUGCGAAUUCUGCUGU [A8G G41A],0.222
17,GGGGGCCGCAGCAGAAGCGUUCACGUCGCGGCCCCUGUCAGAUUCUCGUGAAUCUGCGAAUUCUGCUGU [A8G G47C],0.945
18,GGGGGCCGCAGCAGAAGCGUUCACGUCGCGGCCCCUGUCAGAUUCUUGUGAAUCUGCGAAUUCUGCUGU [A8G G47U],0.92
19,GGGGGCCGCAGCAGAAGCGUUCACGUCCCGGCCCCUGUCAGAUUCUGGUGAAUCUGCGAAUUCUGCUGU [A8G G28C],0.102
20,GGGGGCCGCAGCAGAAGCGUUCACGUCACGGCCCCUGUCAGAUUCUGGUGAAUCUGCGAAUUCUGCUGU [A8G G28A],0.0955

row,Variant,self-cleavage
1,GGGGGCCGCAGCAGAAGCGUUCACGUCUCGGCCCCUGUCAGAUUCUGGUGAAUCUGCGAAUUCUGCUGU [A8G G28U],0.137
2,GGGGGCCGCAGCAGAAGCGUUCACGUCGCGGCCCCUGUCAGAUUCUGGUGAAUCUGCGAAUUCUGCCGU [A8G U67C],0.573
3,GGGGGCCGCAGCAGAAACGUUCACGUCGCGGCCCCUGUCAGAUUCUGGUGAAUCUGCGAAUUCUGCUGU [A8G G17A],0.0671
4,GGGGGCCGCAGCAGAAUCGUUCACGUCGCGGCCCCUGUCAGAUUCUGGUGAAUCUGCGAAUUCUGCUGU [A8G G17U],0.103
5,GGGGGCCGCAGCAGAACCGUUCACGUCGCGGCCCCUGUCAGAUUCUGGUGAAUCUGCGAAUUCUGCUGU [A8G G17C],0.0831
6,GGGGGCCGCAGCAGAAGCCUUCACGUCGCGGCCCCUGUCAGAUUCUGGUGAAUCUGCGAAUUCUGCUGU [A8G G19C],0.161
7,GGGGGCCGCAGCAGAAGCUUUCACGUCGCGGCCCCUGUCAGAUUCUGGUGAAUCUGCGAAUUCUGCUGU [A8G G19U],0.0891
8,GGGGGCCGCAGCAGAAGCGUUCACGUCGCUGCCCCUGUCAGAUUCUGGUGAAUCUGCGAAUUCUGCUGU [A8G G30U],0.335
9,GGGGGCCGCAGCAGAAGCGUUCACGUCGCAGCCCCUGUCAGAUUCUGGUGAAUCUGCGAAUUCUGCUGU [A8G G30A],0.861
10,GGGGGCCGCAGCAGAAGCGUUCACGUCGCCGCCCCUGUCAGAUUCUGGUGAAUCUGCGAAUUCUGCUGU [A8G G30C],0.602
11,GGGGGCCGCAGCAGAAGCGUUCACGUCGCGGCCCCUGUCAGAUUCUGGUGAAUCUUCGAAUUCUGCUGU [A8G G56U],0.446
12,GGGGGCCGCAGCAGAAGCGUUCACGUCGCGGCCCCUGUCAGAUUCUGGUGAAUCUACGAAUUCUGCUGU [A8G G56A],0.562
13,GGGGGCCGCAGCAGAAGCGUUCACGUCGCGGCCCCUGUCAGAUUCUGGUGAAUCUCCGAAUUCUGCUGU [A8G G56C],0.233
14,GGGGGCCGCAGCAGAAGCGUUCACGUCGCGGCCCCUGUCAGAUUCUGGUGAAUCUGCCAAUUCUGCUGU [A8G G58C],0.843
15,GGGGGCCGCAGCAGAAGCGUUCACGUCGCGGCCCCUGUCAGAAUCUGGUGAAUCUGCGAAUUCUGCUGU [A8G U43A],0.401
16,GGGGGCCGCAGCAGAAGCGUUCACGUCGCGGCCCCUGUCAGAGUCUGGUGAAUCUGCGAAUUCUGCUGU [A8G U43G],0.398
17,GGGGGCCGCAGCAGAAGCGUUCACGUCGCGGCCCCUGUCAGAUUCUGGUGAAUCUGCGAAUUCUGUUGU [A8G C66U],0.5
18,GGGGGCCGCAGCAGAAGCGUUCACGUCGCGGCCCCUGUCAGAUUCUGGUGAAUCUGCGAAUUCUGAUGU [A8G C66A],0.249
19,GGGGGCCGCAGCAGAAGCGUUCACGUCGCGGCCCCUGUCAGAUUCUGGUGAAUCUGCGAAUUCUGGUGU [A8G C66G],0.294
